In general, Kd refers to the equilibrium constant for the complex coming apart. Low values mean a tighter complex, high ones a looser complex.

Consider 2 molecules from patent publication US20050147612A1 (published 2005).

One assay deals with T1, FR3exFc (human).
T1 construct: Said to be entirely in dimeric form; also called FR3/Fc; FGFR3/Fc
As to the kind of experiment: BIAcore, mini-antibody format.

In the next assay the target is FGFR3 wild type on cells (human, UniProt P22607 23-806). Description: cell-based or functional assay.
Sequence of FGFR3 wild type on cells (P22607 23-806 limits assumed): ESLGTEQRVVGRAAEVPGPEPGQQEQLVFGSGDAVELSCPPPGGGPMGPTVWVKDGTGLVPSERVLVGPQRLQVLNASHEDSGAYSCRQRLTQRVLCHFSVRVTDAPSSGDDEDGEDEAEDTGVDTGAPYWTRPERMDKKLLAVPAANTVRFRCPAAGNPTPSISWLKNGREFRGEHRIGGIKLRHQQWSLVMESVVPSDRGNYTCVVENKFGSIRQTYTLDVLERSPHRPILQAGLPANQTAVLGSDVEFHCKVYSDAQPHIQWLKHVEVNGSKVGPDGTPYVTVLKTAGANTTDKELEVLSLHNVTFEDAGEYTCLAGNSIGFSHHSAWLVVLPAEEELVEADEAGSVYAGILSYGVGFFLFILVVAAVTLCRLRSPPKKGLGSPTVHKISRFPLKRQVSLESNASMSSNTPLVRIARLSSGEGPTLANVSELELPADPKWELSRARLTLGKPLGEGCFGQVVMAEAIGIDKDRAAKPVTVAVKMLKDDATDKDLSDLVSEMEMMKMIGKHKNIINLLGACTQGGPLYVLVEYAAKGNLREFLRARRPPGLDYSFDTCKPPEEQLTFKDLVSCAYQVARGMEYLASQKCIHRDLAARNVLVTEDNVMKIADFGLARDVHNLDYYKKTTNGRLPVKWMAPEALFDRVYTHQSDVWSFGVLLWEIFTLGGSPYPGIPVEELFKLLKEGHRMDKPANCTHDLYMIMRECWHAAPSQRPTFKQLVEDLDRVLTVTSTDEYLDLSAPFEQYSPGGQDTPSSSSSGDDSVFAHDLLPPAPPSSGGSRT

T1 sequence (chain, as listed by the source limits assumed): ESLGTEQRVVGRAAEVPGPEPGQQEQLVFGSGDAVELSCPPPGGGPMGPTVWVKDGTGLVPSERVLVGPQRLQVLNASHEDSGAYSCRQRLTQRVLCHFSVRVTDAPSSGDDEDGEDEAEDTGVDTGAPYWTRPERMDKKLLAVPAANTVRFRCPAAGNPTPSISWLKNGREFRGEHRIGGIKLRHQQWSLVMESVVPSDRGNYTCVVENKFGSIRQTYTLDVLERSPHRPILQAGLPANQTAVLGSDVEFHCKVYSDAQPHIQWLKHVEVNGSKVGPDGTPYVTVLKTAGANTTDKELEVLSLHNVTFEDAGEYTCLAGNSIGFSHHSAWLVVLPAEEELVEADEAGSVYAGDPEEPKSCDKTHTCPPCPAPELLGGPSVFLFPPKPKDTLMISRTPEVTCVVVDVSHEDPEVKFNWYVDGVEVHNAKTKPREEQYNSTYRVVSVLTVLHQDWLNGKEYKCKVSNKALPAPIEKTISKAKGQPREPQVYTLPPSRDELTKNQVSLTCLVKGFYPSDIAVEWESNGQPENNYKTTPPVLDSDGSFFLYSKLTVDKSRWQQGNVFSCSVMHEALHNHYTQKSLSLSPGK

B1: MS-Pro-24-dHLX-MH (other, not shown: a dimerising Fc or GST; small tags and cut ends)
VH: QVQLVQSGAEVKKPGSSVKVSCKASGGTFSSYAISWVRQAPGQGLEWMGGIIPIFGTANYAQKFQGRVTITADESTSTAYMELSSLRSEDTAVYYCARVNHWTYTFDYWGQGTLVTVSS
VL: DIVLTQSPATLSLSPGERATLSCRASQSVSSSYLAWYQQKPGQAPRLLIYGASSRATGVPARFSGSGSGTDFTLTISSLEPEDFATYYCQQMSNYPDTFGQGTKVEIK
modifications: Dimeric Fab mini-antibody: Fab fused to the dHLX helix and the MH tag. These parts are not in the letters.
notes: Fab mini-antibody format Fab-dHLX-MH (dimer of the Fab); copies: 2 + 2
In the case of B1, in the assay with FR3exFc, the Kd was determined as 2 nM.

B2: MS-Pro-26-dHLX-MH (other, not shown: a dimerising Fc or GST; small tags and cut ends)
VH: QVQLVQSGAEVKKPGASVKVSCKASGYTFTSYYMHWVRQAPGQGLEWMGWINPNSGGTNYAQKFQGRVTMTRDTSISTAYMELSSLRSEDTAVYYCARGYWYAYFTYINYGYFDNWGQGTLVTVSS
VL: DIALTQPASVSGSPGQSITISCTGTSSDVGGYNYVSWYQQHPGKAPKLMIYDVSNRPSGVSNRFSGSKSGNTASLTISGLQAEDEADYYCQSYDNNSDVVFGGGTKLTVL
modifications: Dimeric Fab mini-antibody: Fab fused to the dHLX helix and the MH tag. These parts are not in the letters.
notes: Fab mini-antibody format Fab-dHLX-MH (dimer of the Fab); also called MSPRO26 Fab-dHLX; MSPRO26 dimeric dHLX format; copies: 2 + 2
Consider B2, for which the “IC50, FDCP-FGFR3 proliferation assay with FGF9” value in the assay with FGFR3 wild type on cells turned out to be 8 nM. This molecule also showed a Kd in the assay with FR3exFc of 2 nM.
